Series [1] concerns the target VIM-1 beta-lactamase (UniProt A0A0F7KYQ8 21-266). The experiment in a line: EMSA. Background: In EMSA bound probe runs differently from free probe, usually more slowly.
The target of series [2] is NDM-1 beta-lactamase (UniProt C7C422 29-270). The experiment in a line: EMSA.
Series [3] addresses IMP-1 beta-lactamase (UniProt P52699 19-246). The experiment in a line: EMSA.
Series [4] has as its target T1, SPM-1 beta-lactamase (Pseudomonas aeruginosa, UniProt Q8G9Q0 29-276).
T1 sequence: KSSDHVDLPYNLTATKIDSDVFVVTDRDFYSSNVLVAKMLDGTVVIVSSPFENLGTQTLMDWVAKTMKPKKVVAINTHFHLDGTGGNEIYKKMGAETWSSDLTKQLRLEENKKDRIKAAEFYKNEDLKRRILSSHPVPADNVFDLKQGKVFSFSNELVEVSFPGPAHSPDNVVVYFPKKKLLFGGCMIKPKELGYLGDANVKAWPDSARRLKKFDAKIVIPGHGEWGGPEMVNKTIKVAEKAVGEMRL
The series can be described thus: EMSA.

The target of series [5] is T1, SPM-1 beta-lactamase. The series can be described thus: NMR.

Chain of NDM-1 beta-lactamase (C7C422 29-270): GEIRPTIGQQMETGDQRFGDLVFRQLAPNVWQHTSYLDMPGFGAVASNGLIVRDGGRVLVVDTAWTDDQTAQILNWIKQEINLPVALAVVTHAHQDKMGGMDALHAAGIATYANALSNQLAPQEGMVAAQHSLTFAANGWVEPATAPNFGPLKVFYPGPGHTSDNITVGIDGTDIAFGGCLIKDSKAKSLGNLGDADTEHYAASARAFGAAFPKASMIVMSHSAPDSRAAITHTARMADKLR
Chain of IMP-1 beta-lactamase (P52699 19-246): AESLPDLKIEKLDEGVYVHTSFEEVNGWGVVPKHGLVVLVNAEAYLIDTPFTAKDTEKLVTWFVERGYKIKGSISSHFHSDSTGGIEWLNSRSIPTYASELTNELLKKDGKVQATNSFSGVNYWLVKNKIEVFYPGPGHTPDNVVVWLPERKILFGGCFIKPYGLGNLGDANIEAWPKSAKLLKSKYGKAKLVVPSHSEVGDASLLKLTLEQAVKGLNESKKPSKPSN

B1: S25 2'-FY (XNA)
RNA: GGGAGAUGCUAGAGAUUCGGUGGGACACCCGUCUCCC
modifications: 2'-fluoro at all pyrimidines (C, U)
On to B1, for which the binding result in series [1] is reported as “no binding”; in series [2] it was “no binding”; in series [3] it was “no binding”; in series [4] it was “binds”.

B2: S25 RNA (structured_RNA)
RNA: GGGAGAUGCUAGAGAUUCGGUGGGACACCCGUCUCCC
With B2, in series [5], the binding result is recorded as “binds”.

B3: S30 RNA (S25 G31U) (structured_RNA)
RNA: GGGAGAUGCUAGAGAUUCGGUGGGACACCCUUCUCCC
As for B3, in series [5], the binding result is recorded as “binds”.

The record behind these values is paper doi:10.1101/2024.08.16.608213.
